Data taken from a protein production outcome set (Wang et al. 2014).

Assay: label from the status in PepcDB records

Sequence | protein production
MGEAAKDQTEEVIQAWYLDNKEEDQKLPHHKDPKEFVSLDKLAELGVLCWRLDADNYETDEELKRIRESRGYSYMDLCEVCPEKLPNYEEKVKMFFEEHLHIDEEIRYCLAGSGYFDVRDLNDIWIRVWVKKGGLIVFPAGIYHRFTVDSDNYMKAMRLFVGGPVWTAYNRPHDHLPARKAYMKKFLKVIGDRNIDASA | failed
MSQSSDASEKEKPKEKKSQEELEKELDKELKKGGEPKTKKDDQIHKIGETFKAGHTNFTVNKVDRVQKGEYMNVGGAVNEETKTIKDDEERLIIEVTMENIGEDSISYNFIGFDLRDKNDQSVRPVFSIEEKGRILMGGTLVSGKKVTGVLSYVIPKGEQKHYTLVYNPFLADTNSSNTEERVKDDIDYLVKLDLEHHHHHH | not failed
MRIIIVGGGKVGYQVARQCAAWGCDVVLVENDRQKGEKIKGELGLQVVIGDGTKAHFLKKAGAEEADIVVAVTDDDQDNLVICQLAERQFKAKRTLALVNNPGNEKLFRWLGVNQVIGPASLILGLIQERVDMDSTAAMWMQGIKDLKMIQFKLGPEAPVLGRKIKTIPFPNECILVTVVRENTAIVPCGNTVLEEGDLVFALANPAVQAELERVLTGKNDN | failed
MERDQHIRIIYKLIIVLLVLLIIYVVVQLADLWVPFVYVLKRLLIPLGLAAIITYLFHPLIEAMHRRGMGRGLAVLLVFGAMIALLVCFAVVGAPYVLQQIEELTTSFPTVMKDVEGTVSKMEWQIQQLPHPFHNQAENWLNHLGKKAGNLLGQMERVIVVLIQSMVLLITVPFLVLYFLKDFDLIERAAWYVTPRKWRPSLKRYVRDVDRSFGRYIRGQLLVALSVAVVSMMALWLIGVPYPILLGGFIGATNIIPYFGAFIGAVPALVFAYFESWPVLLATAIALFLLQQLEGNVLSPLIVGHSLHLHPITIILALLVGVEVGGVIGLILAVPILAVLKVTFIHLRLHVSKVDREV | failed
MKRKWIDALWVMGVLLMAGFCLSACNRELDVQTVFPFEVSTMPVPKQIKQGETVEVRCSLVSEGDFSGTCYTMRFFQTEGKGVLRIGRGVALKPNDCYPVGKGDFRLYYTSQSKERQSLEIVFEDNHGQSQTIVLDFNHKESDEDKEREAGYRT | failed
MPDPRGGAQGGGVSGQEGPTLISSVQRAFRLMEAVGAHESGVPAKQLARETGLALGTTYHLLRTMVHDGYVRKLEDGTFVLGERLGALHAGSRDQTALSRVRPTLTELRDDLSAAAYLTLYEEGEIRVAEIVDGPKAPRVDLWVGFEDAGHATALGKSVLRELDAEARADYLSRHALNDLTPRTITYRAQLLRSLDAAPRGPAVTDLEEYRLGTACVAVPVRRGDTIGSLGISVDINRTACLDDAVTTLLATAERVSRGLSLTI | failed
TIFKDIYQLWFTQYKQTVKESTWVTTQRLFRLHILPIFSDYRIAKISIKDCQKAINQWFNAGLAKYHTLMNYVAKVLDYAINIDLISENPAKRVIVPVNKNDRS | failed
MPTFLLVNDDGYFSPGINALREALKSLGRVVVVAPDRNLSGVGHSLTFTEPLKMRKIDTDFYTVIDGTPADCVHLGYRVILEEKKPDLVLSGINEGPNLGEDITYSGTVSGAMEGRILGIPSIAFSAFGRENIMFEEIAKVCVDIVKKVLNEGIPEDTYLNVNIPNLRYEEIKGIKVTRQGKRAYKERVFKYIDPYGKPFYWIAAEEFGWHAEEGTDYWAVLNGYVSVTPLHLDLTNYKVMKSIKYLEDSP | not failed
MPDLMHSELTMSGPEQSLLAGALLGAGLPADAHRHLELAGRDYQSEALAEQHLREAHLLAPDHAAVLIGLYRFYFYKGRLGEALEVAQACLCKAARDNGLASDWRKVRRGDAEFSSYSAVLPRFYLFALKAYAYLQMRLGQLDEGHAAVEKLLELDPTDKVGAAVLLDVWRRIGQDDDD | failed
MSFKVISTGPQAIFQDRGRFGFASAGVGTSGSFDRLSAARANHALGNDPNATVVEILLGGFEVEALHTTSIVFTGTEAEVMVRTAGGQSKNATTNTIIDVAAGERIRVEPATYGMRAYFAARGGFAVEKTLGSASTDLISHMGPRPIEPGDVIDVATDIADSQWWPKLRQLPTLWKRMPTETLTVIRGPRDKWFTQESLNNFFTQVFTVSNDSNRIGLRMHSSEPIQHRVEGELKSEGMVRGSIQIPPGGNPVVFGPDHPVTGGYPVIAVLTSRSCDRSAQLLPGDKVRFKLL | failed
MAQLPASMRRKRAAITSIHEKPPSRKQKLVNAGGWILLCIAFVVLAAGVYGLYKVITDAKIADLSIVGTRSVVEQNQLQQHIQPIIKDNYFTSDLEQIRDKALEISWVDRVVVSRAWPNSIRVRIMPRHAIARWGTGRLLSDSGDVYAEAELKNHPNLPMLHGPITQSKAMMRRYNEINQLFQPVNLRLTELYLTERMTWFMQFDSGLRVIVDQDQTMSKLQRLSHLAQTDLKPVWSKISAIDLRYRNGLSLQWKTGVPPKILNGQFVVTSDDTNVASGMTAKP | failed
VIGTWDCDTCLVQNKPEAIKCVACETPKPGTCVKRALTLT | not failed
MTPNEIAAKLSGLATKYHIRDVTLLAGRLLMSFIFLHEGVTLATHFDGAARAMAALGVGLPLFVATIALQLGAGLSVASGLLTRLGGIGLGLFCLATALLFHTNFASQNELLHFEKDLAISGGMFVLAAVGAGRFSLDWLLAGYLQKRQRDKEMARALLAVENQFSVDVQLPV | failed
MSNSHLGTLCFIISLLGLANFSLSQTGLDDSTMQSLKSSLNLTSDVDWSNPNPCKWQSVQCDGSNRVTKIQLKQKGIRGTLPTNLQSLSELVILELFLNRISGPIPDLSGLSRLQTLNLHDNLFTSVPKNLFSGMSSLQEMYLENNPFDPWVIPDTVKEATSLQNLTLSNCSIIGKIPDFFGSQSLPSLTNLKLSQNGLEGELPMSFAGTSIQSLFLNGQKLNGSISVLGNMTSLVEVSLQGNQFSGPIPDLSGLVSLRVFNVRENQLTGVVPQSLVSLSSLTTVNLTNNYLQGPTPLFGKSVGVDIVNNMNSFCTNVAGEACDPRVDTLVSVAESFGYPVKLAESWKGNNPCVNWVGITCSGGNITVVNMRKQDLSGTISPSLAKLTSLETINLADNKLSGHIPDELTTLSKLRLLDVSNNDFYGIPPKFRDTVTLVTEGNANMGKNGPNKTSDAPGASPGSKPSGGSDGSETSKKSSNVKIIVPVVGGVVGALCLVGLGVCLYAKKRKRPARVQSPSSNMVIHPHHSGDNDDIKLTVAASSLNSGGGSDSYSHSGSAASDIHVVEAGNLVISIQVLRNVTNNFSEENILGRGGFGTVYKGELHDGTKIAVKRMESSVVSDKGLTEFKSEITVLTKMRHRHLVALLGYCLDGNERLLVYEYMPQGTLSQHLFHWKEEGRKPLDWTRRLAIALDVARGVEYLHTLAHQSFIHRDLKPSNILLGDDMRAKVSDFGLVRLAPDGKYSIETRVAGTFGYLAPEYAVTGRVTTKVDIFSLGVILMELITGRKALDETQPEDSVHLVTWFRRVAASKDENAFKNAIDPNISLDDDTVASIEKVWELAGHCCAREPYQRPDMAHIVNVLSSLTVQWKPTETDPDDVYGIDYDMPLPQVLKKWQAFEGLSQTADDSGSSSSAYGSKDNTQTSIPTRPSGFADSFTSVDGR | failed
MSNAFEYLRTYVESTTETDAAVARAREDAAEFGLPAPDEMTGQLLTTLAATTNGNGSTGAIAITPAAGLVGLYILNGLADNTTLTCIDPESEHQRQAKALFREAGYSPSRVRFLLSRPLDVMSRLANDSYQLVFGQVSPMDLKALVDAAWPLLRRGGALVLADALLDGTIADQTRKDRDTQAARDADEYIRSIEGAHVARLPLGAGLTVVTKALEHHHHHH | not failed
MRNGRLLEACDDIPEEDIPSRRYEASMCYLRGLCYAKQNAFDRAKEAYKDALRIDVQCFEAFSQLVKNSLMSPDEEDEFMQSLAFDSIRAPGDDPDMEDEPADYVHMLYQTQLSKYRNPQAFNTAIESLSTHYGLENNADILLAKADLLYTQCRFKDALAITESILMDDKYNFAVYPIHLACLYELRKTNVLFLIAHELADTHPDEPCTWLAVGIYYFTTGKIADARRYFSKASMMDANFGPAWIGFAHTFAAEGEHDQAVTAYSTAARLFTGTHLPQVFLGMQNHAMNNMTAAEEFLKTAYSLCKTDPLLLNEMGIVLYHQDRLKEAVKMFDQVMAFGTAEMSRASEKRRMETMLSKLLQSLRPSTTSAIFSRRSTILPL | failed
